According to article PMC9482650, “Quantitative fragmentomics allow affinity mapping of interactomes” (Nature Communications, 2022):

T1: GRIP1_2, Q9Y3R0
T1 sequence (Q9Y3R0 145-248, limits assumed, looked up): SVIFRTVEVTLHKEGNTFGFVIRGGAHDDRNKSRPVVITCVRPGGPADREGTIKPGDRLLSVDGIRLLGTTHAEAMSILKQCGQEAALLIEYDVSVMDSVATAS

T2: DVL3, Q92997
T2 sequence (Q92997 244-331, limits assumed, looked up): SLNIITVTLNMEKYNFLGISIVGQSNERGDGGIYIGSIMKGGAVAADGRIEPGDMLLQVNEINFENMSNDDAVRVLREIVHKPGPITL

T3: ARHGAP21, Q5T5U3
T3 sequence (Q5T5U3 45-169, limits assumed, looked up): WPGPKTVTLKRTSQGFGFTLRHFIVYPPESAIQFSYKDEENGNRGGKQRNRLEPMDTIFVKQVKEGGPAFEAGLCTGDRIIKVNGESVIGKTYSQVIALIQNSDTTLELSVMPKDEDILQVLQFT

T4: RHPN1, Q8TCX5
T4 sequence (Q8TCX5 508-602, limits assumed, looked up): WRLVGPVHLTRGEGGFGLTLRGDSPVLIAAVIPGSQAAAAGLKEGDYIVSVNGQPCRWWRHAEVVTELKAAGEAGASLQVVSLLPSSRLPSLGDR

T5: HTRA4, P83105
T5 sequence (P83105 378-476, limits assumed, looked up): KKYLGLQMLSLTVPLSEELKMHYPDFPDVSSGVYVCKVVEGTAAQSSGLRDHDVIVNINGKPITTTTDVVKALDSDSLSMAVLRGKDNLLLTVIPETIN

T6: MPP6, Q9NZW5
T6 sequence (Q9NZW5 125-219, limits assumed, looked up): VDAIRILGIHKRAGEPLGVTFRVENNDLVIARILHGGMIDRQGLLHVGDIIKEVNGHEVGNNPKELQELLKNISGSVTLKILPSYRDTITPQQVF

T7: DFNB31_3, Q9P202
T7 sequence (Q9P202 811-907, limits assumed, looked up): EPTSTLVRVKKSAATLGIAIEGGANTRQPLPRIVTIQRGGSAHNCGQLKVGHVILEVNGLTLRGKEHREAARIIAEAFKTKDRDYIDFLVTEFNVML

T8: LRRC7, Q96NW7
T8 sequence (Q96NW7 1440-1537, limits assumed, looked up): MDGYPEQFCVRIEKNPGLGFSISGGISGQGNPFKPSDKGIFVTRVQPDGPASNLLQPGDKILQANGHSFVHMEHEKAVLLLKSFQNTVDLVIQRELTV

T9: APBA3_1, O96018
T9 sequence (O96018 389-490, limits assumed, looked up): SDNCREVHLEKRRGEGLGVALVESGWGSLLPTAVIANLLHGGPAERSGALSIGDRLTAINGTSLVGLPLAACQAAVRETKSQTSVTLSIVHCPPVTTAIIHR


What was measured:
Experiment in all cases: holdup assay
Set-up in all cases: key: below the threshold = too weak to quantify, mostly under pKd 3.1 to 4
Conditions in all cases: plain residues with an end cap or a label only (N-terminal biotin on a linker: ttds)
GRIP2_7, Q9C0E4 = biological target: GRIP2_7, Q9C0E4
Sequence of GRIP2_7, Q9C0E4 (Q9C0E4 934-1023): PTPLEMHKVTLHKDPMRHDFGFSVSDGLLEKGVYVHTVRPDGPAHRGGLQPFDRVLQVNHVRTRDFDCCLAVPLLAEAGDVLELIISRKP

Inadl_2, Q8NI35 = biological target: Inadl_2, Q8NI35
Sequence of Inadl_2, Q8NI35 (Q8NI35 238-335): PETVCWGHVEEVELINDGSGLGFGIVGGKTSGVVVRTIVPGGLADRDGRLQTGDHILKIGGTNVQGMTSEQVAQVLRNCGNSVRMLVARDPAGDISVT

GRIP1_2, Q9Y3R0 = biological target: T1, GRIP1_2, Q9Y3R0
LAP2, Q96RT1 = biological target: LAP2, Q96RT1
Sequence of LAP2, Q96RT1 (Q96RT1 other isoform, or with tags, fused parts or gaps): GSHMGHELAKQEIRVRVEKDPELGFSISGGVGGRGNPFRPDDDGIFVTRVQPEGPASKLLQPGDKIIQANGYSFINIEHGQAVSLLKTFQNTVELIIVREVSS

DVL3, Q92997 = biological target: T2, DVL3, Q92997
MAST2, Q6P0Q8 = biological target: MAST2, Q6P0Q8
Sequence of MAST2, Q6P0Q8 (Q6P0Q8 1099-1202): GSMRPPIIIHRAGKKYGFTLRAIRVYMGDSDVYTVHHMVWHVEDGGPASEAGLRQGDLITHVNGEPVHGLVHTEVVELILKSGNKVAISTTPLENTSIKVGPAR

DLG4_3, P78352 = biological target: DLG4_3, P78352
Sequence of DLG4_3, P78352 (P78352 306-403): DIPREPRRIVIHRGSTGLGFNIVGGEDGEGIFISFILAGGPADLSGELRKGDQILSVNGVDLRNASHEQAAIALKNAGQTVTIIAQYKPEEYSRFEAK

ARHGAP21, Q5T5U3 = biological target: T3, ARHGAP21, Q5T5U3
SNX27, Q96L92 = biological target: SNX27, Q96L92
RHPN1, Q8TCX5 = biological target: T4, RHPN1, Q8TCX5
HTRA4, P83105 = biological target: T5, HTRA4, P83105
MPP6, Q9NZW5 = biological target: T6, MPP6, Q9NZW5
DFNB31_3, Q9P202 = biological target: T7, DFNB31_3, Q9P202
IL16_4, Q14005 = biological target: IL16_4, Q14005
Sequence of IL16_4, Q14005 (Q14005 1229-1329): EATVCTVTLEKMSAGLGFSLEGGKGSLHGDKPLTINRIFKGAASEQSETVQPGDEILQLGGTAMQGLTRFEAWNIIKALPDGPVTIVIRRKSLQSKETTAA

DLG2_2, Q15700 = biological target: DLG2_2, Q15700
Sequence of DLG2_2, Q15700 (Q15700 189-283): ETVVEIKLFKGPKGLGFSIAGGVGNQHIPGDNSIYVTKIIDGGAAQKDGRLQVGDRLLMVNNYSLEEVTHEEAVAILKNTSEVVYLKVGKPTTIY

GRIP2_6, Q9C0E4 = biological target: GRIP2_6, Q9C0E4
Sequence of GRIP2_6, Q9C0E4 (Q9C0E4 648-740): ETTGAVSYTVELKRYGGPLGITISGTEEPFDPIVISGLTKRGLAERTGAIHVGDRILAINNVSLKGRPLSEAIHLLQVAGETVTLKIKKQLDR

DLG5_1, Q8TDM6 = biological target: DLG5_1, Q8TDM6
Sequence of DLG5_1, Q8TDM6 (Q8TDM6 617-713): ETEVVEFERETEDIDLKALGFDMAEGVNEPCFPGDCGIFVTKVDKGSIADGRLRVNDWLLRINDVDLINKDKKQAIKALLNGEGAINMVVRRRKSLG

DLG1_2, Q12959 = biological target: DLG1_2, Q12959
Sequence of DLG1_2, Q12959 (Q12959 314-412): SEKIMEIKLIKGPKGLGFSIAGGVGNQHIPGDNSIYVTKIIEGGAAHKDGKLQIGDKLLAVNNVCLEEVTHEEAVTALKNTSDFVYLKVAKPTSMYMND

GRIP2_3, Q9C0E4 = biological target: GRIP2_3, Q9C0E4
Sequence of GRIP2_3, Q9C0E4 (Q9C0E4 238-339): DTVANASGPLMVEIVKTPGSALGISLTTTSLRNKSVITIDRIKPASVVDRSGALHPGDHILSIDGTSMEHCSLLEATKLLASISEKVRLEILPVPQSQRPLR

LRRC7, Q96NW7 = biological target: T8, LRRC7, Q96NW7
FRMPD2_1, Q68DX3 = biological target: FRMPD2_1, Q68DX3
Sequence of FRMPD2_1, Q68DX3 (Q68DX3 770-861): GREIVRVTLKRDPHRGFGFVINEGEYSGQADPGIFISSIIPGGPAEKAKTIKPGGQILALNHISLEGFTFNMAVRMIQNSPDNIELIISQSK

MAGI2_2, Q86UL8 = biological target: MAGI2_2, Q86UL8
Sequence of MAGI2_2, Q86UL8 (Q86UL8 410-522): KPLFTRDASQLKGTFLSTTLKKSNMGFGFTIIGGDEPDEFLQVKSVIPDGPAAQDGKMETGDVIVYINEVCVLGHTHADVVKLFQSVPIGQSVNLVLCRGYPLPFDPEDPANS

Inadl_9, Q8NI35 = biological target: Inadl_9, Q8NI35
Sequence of Inadl_9, Q8NI35 (Q8NI35 1530-1615): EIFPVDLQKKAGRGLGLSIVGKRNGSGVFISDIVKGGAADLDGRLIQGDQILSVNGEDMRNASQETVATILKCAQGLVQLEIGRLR

Inadl_8, Q8NI35 = biological target: Inadl_8, Q8NI35
Sequence of Inadl_8, Q8NI35 (Q8NI35 1425-1530): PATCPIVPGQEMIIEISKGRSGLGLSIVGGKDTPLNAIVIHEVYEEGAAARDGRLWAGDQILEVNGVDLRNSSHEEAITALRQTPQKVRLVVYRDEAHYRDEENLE

SCRIB_1, Q14160 = biological target: SCRIB_1, Q14160
Sequence of SCRIB_1, Q14160 (Q14160 718-814): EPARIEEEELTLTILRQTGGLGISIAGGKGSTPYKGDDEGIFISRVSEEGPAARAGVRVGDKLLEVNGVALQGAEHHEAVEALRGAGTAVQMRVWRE

APBA3_1, O96018 = biological target: T9, APBA3_1, O96018
FRMPD3, Q5JV73 = biological target: FRMPD3, Q5JV73
Sequence of FRMPD3, Q5JV73 (Q5JV73 12-100): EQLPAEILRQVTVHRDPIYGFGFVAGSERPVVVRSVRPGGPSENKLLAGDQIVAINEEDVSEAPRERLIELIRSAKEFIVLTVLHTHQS

LDB3, O75112 = biological target: LDB3, O75112
Sequence of LDB3, O75112 (O75112 1-94): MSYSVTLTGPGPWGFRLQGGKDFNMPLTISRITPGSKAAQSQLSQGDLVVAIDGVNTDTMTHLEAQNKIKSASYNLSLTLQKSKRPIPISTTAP

Binder	pKd (GRIP2_7, Q9C0E4)	pKd (Inadl_2, Q8NI35)	pKd (GRIP1_2, Q9Y3R0)	pKd (LAP2, Q96RT1)	pKd (DVL3, Q92997)	pKd (MAST2, Q6P0Q8)	pKd (DLG4_3, P78352)	pKd (ARHGAP21, Q5T5U3)	pKd (SNX27, Q96L92)	pKd (RHPN1, Q8TCX5)	pKd (HTRA4, P83105)	pKd (MPP6, Q9NZW5)	pKd (DFNB31_3, Q9P202)	pKd (IL16_4, Q14005)	pKd (DLG2_2, Q15700)	pKd (GRIP2_6, Q9C0E4)	pKd (DLG5_1, Q8TDM6)	pKd (DLG1_2, Q12959)	pKd (GRIP2_3, Q9C0E4)	pKd (LRRC7, Q96NW7)	further results
GRLLGLETNV [ARHGEF26, Q96DR7]	below the threshold	below the threshold	below the threshold	4.41	below the threshold	5.35	3.8	below the threshold	4.49	4.48	below the threshold	below the threshold	below the threshold	below the threshold	4.88	below the threshold	below the threshold	5.18	below the threshold	below the threshold	pKd (FRMPD2_1, Q68DX3): below the threshold; pKd (MAGI2_2, Q86UL8): 3.72; pKd (Inadl_9, Q8NI35): below the threshold; pKd (Inadl_8, Q8NI35): below the threshold; pKd (SCRIB_1, Q14160): 4.45; pKd (APBA3_1, O96018): below the threshold; pKd (FRMPD3, Q5JV73): below the threshold; pKd (LDB3, O75112): below the threshold
QRPYRRESEI [KCNJ12, Q14500]	below the threshold	below the threshold	below the threshold	below the threshold	below the threshold	4.42	4.31	below the threshold	below the threshold	3.5	below the threshold	below the threshold	below the threshold	below the threshold	3.96	below the threshold	below the threshold	4.61	below the threshold	below the threshold	pKd (FRMPD2_1, Q68DX3): below the threshold; pKd (MAGI2_2, Q86UL8): 4.21; pKd (Inadl_9, Q8NI35): below the threshold; pKd (Inadl_8, Q8NI35): below the threshold; pKd (SCRIB_1, Q14160): 3.83; pKd (APBA3_1, O96018): below the threshold; pKd (FRMPD3, Q5JV73): below the threshold; pKd (LDB3, O75112): below the threshold
